Measurements from patent publication US20140289906A1, “Compositions Having Dicamba Decarboxylase Activity and Methods of Use” (priority 2013, published 2014).
Changes are numbered by the printed parent chain.

B1: 44 (protein, listed as Mycobacterium avium)
chain: MARIITVEEHFQHPEVSARVAELTGPAVEGLAEFGNAFSLDPDSTARLGGNRLAHMDQVGIDVQVVSHGNGSPGTLQHPEAVELCRRVNNDLAAQIAENPDRFRGFATLPLYDPAAAAEELRRCVGDLGFVGALIAGSYDGLFLDDERFDPILTAAEAVDFPIYVHPGLPEAPVSQRYYAGSWPASVHMMFSGPAFGWHAEAGIHIVRLILSGALDRHPTLKLLSGHWGELAAFYLERLDETLGLLPTGLERAPSDYYRQQVWITPSGMYNQNQLNFMTAELGAQRIIYSEDFPYVVRDNVSTFLEQAGLSEADTHAIAHTNAEALLRI
B2: 34 (protein)
chain: MAQGKIGLEEHFAIPETLNDSAGFVPGDYWKELSRRLLDIQDDRLRQMDENGMEMMLLSLNAPAVQAVPDRKQACELAVRANDFLAEQVSRRPDRFQALAALPLQDPDFATVELTRCVNELGMRGALVNGFSQIDTPDNVVYYDAPQYASFWAAVEKLDVPFYLHPRNPIASWAQIYDGHPWLLGPTWAFGQETAVHALRLMASGLFDRHPALQIVLGHLGEGLPYSLWRIDNRNAWVKAPKTHPAKKTFRHYFQQNFHLTTSGNFHNQTLIDAILEIGADRILFSTDWPFENIDHAAKWFDSASISEADRTKIGRTNAMKLFKLVA
modifications: Cupriavidus necator
B3: 30 (protein)
chain: MARGKIALEEHVSTPENNRLWDSTGEANRNGSEYMQDVERRLLDRSIQLEEMAQRNIDHVILSLTSPGAQSILDKAKAVSFARDTNDFIVDNYVKPNPDKFSAFATLALQNPEAAAEELERAVKKLGMKGALINGYTNVKDSEHGLYLDDESMLVFWDKVNELNVPVYLHPREPLEGPARGIYTGYESLIGSAWGFAQETAVHAIRLMMSGLFDRYPNLNLVLGHLGEGLVHMLPRTQHRLYRQRFGCGLGKAEKPLMHYLQNNFIVTTSGHFNTHSLNNAIEVMGADRVMFSVDYPYEDIHQACDWFDPLEMDEGLKEKIAWGNASRVFNIK
modifications: Enterobacter aerogenes
B4: 49 (protein, listed as Streptomyces sp.)
chain: MAKIIALEEHFSDPAVAKAGAARARALSPGFAASYSPASGLPYSPSPEVLENLAEKRLADMDAGGITMQVLSGLGAQTVPADVAPALVAGSNDKAAAAVRAHPDRFAAFAALPTATPEAAVAELDRSVNELGFVGTLIMGRTEGEFLDAPRFEPILARAAALKVPVFLHPGVPPREITDSNYAAGLPTGIGTRLQTAAWGWHQETAVHFLHLVHSGVLDRYPDLQFILGHWGEMIPFYLDRVDEALPQRATGLDRSFHEYFRENVYLAPSGMWSQAQLRFCLETVPLERIVFAVDYPFIGNEGAVPFLEKAELPQADKRKIAHENAERLLGL
B5: 28 (protein, listed as Sphingomonas paucimobilis)
chain: MARLIATEEAVTFQPVVDALRAHSRTDDASLDMILVRDVYGDEPARPAMIGRLSDVTGERLAEMDSNGVDMHLLSLTAPGVQMFDAETGTRLARIANDLMAQTVAANPTRFAGLGTFAPQDPASAAREIERVATQLRLNGLVINSHTNDLYYDDPFFHPVFEAIEASGLALYIHPRAPSKQIDRAFRDYGMNSAIWGYGIETSTNAVRMILSGLFDRFPRLKIVLGHMGEAIPFWLWRLDYMHGNATTFGGAPKLKLKPSEYFRRNFAITTSGVESHAALRYSIEVLGPENVMWAIDYPYQPMAPAVQFIRTAPIPEDVKAMVAGGNAARIFRIT
B6: 35 (protein)
chain: MAFKASRKIALEEHFAIDATVQDSAGFVPPSYWAELKRRLLDIHDRRIDEMDRNGVELMVLSLNAPTVQAVPNIKDAYDLSRRANDFLAEQIVKRPERFKGFAALPMQSPDLAARELERCVKELNFVGALVNGFSQVEESGTALYYDLPQYRQFWSVVQALDVPFYLHPRNPLPAHAPIYEGHPWLLGPTWAFGQETAVHALRLMGSGLFDEYPELKIILGHMGEGLPYSMWRIDNRNAWVETQPNYPAKKRIAEYFHKNFWLTTSGNFRTQTLIDAMLEIGSDRILFSTDWPFENVDHAAQWFDDAAISENDRIKIARTNAARLFKLEP
modifications: Burkholderia sp
B7: 48 (protein, listed as Amycolatopsis mediterranei)
chain: MASMKLYGLEEHFVTADVIEAWRRRDPGLAEPMMKWAVASDITPALLDVDGGRIAAMDDAGIDTTVLSLTTPGLQNLDAAEAVALQAPTNDLIAAAVRRHPGRFQGFATLATSAPAAAADELRRAVTELGLNGALVNANSRGRALDAPGFWDIYEAAEDLRAPVYLHPGVPVPAVTEAYYRGFGEPVNSMLATGAFGWHYDAGLTILRMIVAGVFDRFPGLQVILGHWGEVVLFYLDRVAAMDKLTALRRPIAEYFRSNIFITPGGISSHKYLRWSLETVGVERIMYASDYPFNTERAGSARRFLDTAPVDEAGRERIAYRNWEELIAGIRR
B8: 31 (protein, listed as Agrobacterium sp.)
chain: MAQGKVALEEHFAIPETLQDSAGFVPGDYWKELQHRLLDIQDTRLKLMDAHGIETMILSLNAPAVQAIPDKTKAIEIARRANDVLAEECAKRPDRFLAFAALPLQDPDAATEELQRCVNDLGFVGALVNGFSQEGDGQTPLYYDLPQYRPFWGEVEKLDVPFYLHPRNPLPQDSRIYDGHPWLLGPTWAFAQETAVHALRLMASGLFDEHPRLNIILGHMGEGLPYMMWRIDHRNAWVKLPPRYPAKRRFMDYFNENFHITTSGNFRTQTLIDAILEIGADRILFSTDWPFENIDHASDWFNATSIAEADRVKIGRTNARRLFKLDGA
B9: 36 (protein, listed as Agrobacterium sp.)
chain: B8 chain with K31T, V84A, D94N, E112Q, T139I, M251V, N302H, A328R
B10: 47 (protein, listed as Serratia odorifera)
chain: MAKIICLEEHTLDKALVMASMPAALAQAPFLSDWGKTITDGNLPDRSRPQIEKNDLINVKGADIGRGRLDDMDEAGITMQVLSVGGFPHLISAAEGVDLNRAANDRLANAVNAHPDRFAAFATLPWAQPDAAEKELERAVKELGFKGALLNGRPSIHFLDHPDYDGLLARFNALGVPLYLHPGLPVRSVQQAYYSGFSDEVTARLSMFGWGWHHEAGIHLLRLILSGAFDKYPNLQVISGHWGEMLPFWLQRLDDSLPQAATGLRRTITQTFREQVYVTPSGMLTLPHFQFIYALLGAERILFSVDYPYQTLDGVKAFIQSLPVPEEAKEAIAFRNAERLFGLTS
B11: 33 (protein, listed as Rhizobium leguminosarum)
chain: MAQGKIALEEHFAIPETLQDSAGFVPGDYWKELSARLLDIQEKRLRLMDAHGIEKMILSLNAPAVQAIPDRAKALEISRRANDFLAEQCVKNPNRFLGFAALPLQDPDAATQELQRCVTTMGFVGALVNGFSQEGDGTTPLYYDLPQYRSFWAEVEKLNVPFYLHPRNPLPQDSRIYAGHSWLMGPTWAFAQETAVHALRLMGSGLFDEHPALRIIVGHMGEGLPYMMWRIDNRNAWVKVEKSYPAKRPIADYFNENFYITTSGNFRTQSLIDAMLEIGADRILFSADWPFENIDHAANWFDSATISEADRLKIGRTNAVSLFKLDR
B12: 43 (protein, listed as Rhizobium leguminosarum)
chain: B11 chain with K31T, E42D, A50T, R71K, L75V, S150P, N159D, I294V
B13: 46 (protein, listed as Rhodococcus opacus)
chain: MARIITLEEHYLDPAIAAASAPLARELSPDFAAAYDPASGLSYTPSAQVLQDLGQRRIADMDTHGISMQVLSCLTTQQVPADVAPDLVRAANDTAAAAVRAHPDRFAAFAALPTTAPDAAATELARCIDDLGFVGTMINGRTDGEFLDAPRFDPILATAAARNVPIYLHPAVPPRATSDSNYAGLAPLVTARLQTSAWGWHQETAVHFLHLVLSGVLDRYPNLQFILGHWGEMIPFYLDRLDEALPQAVTNLDRTISDYVRENVYITPSGMFNQAQLQYCVETLGVDRILYSVDYPFIGNDGAVSFLDEANLPDEAKHQIAHQNTEKLLGL

Assay: 14C assay: 14CO2 capture from [14C]-carboxyl-labeled dicamba with IPTG-induced recombinant E. coli cells
Details: for Dicamba Decarboxylase Activity: IPTG-induced recombinant E. coli cells, 14CO2 from [14C]-carboxyl-labeled dicamba; for decarboxylation activity of dicamba: among the 108 sequences tested, recombinant E. coli cell assay; for Enzymatic Detection level: dicamba decarboxylation activity

Molecule | Dicamba Decarboxylase Activity | decarboxylation activity of dicamba | Enzymatic Detection level
B1 | High | showed decarboxylation activity of dicamba | High
B2 | High | showed decarboxylation activity of dicamba | High
B3 | High | showed decarboxylation activity of dicamba | High
B4 | High | showed decarboxylation activity of dicamba | High
B5 | High | showed decarboxylation activity of dicamba | High
B6 | High | showed decarboxylation activity of dicamba | High
B7 | High | showed decarboxylation activity of dicamba | High
B8 | High | showed decarboxylation activity of dicamba | High
B9 | High | showed decarboxylation activity of dicamba | High
B10 | High | showed decarboxylation activity of dicamba | High
B11 | High | showed decarboxylation activity of dicamba | High
B12 | High | showed decarboxylation activity of dicamba | High
B13 | High | showed decarboxylation activity of dicamba | High
